Reference: the supplement of paper PMC9876800

System: peptide library, one residue held at a place counted from the S/T acceptor
Assay: relative phosphorylation of the sub-library (ratio to the mean residue at this position); human; higher = residue favoured
Procedure, shortened: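 Relative sub-library phosphorylation, a ratio to the mean residue at that position, was obtained by phosphorimaging and densitometry of spots on streptavidin membranes. Before capture, purified recombinant kinases were incubated for 90 min under kinase-specific conditions with 50 μM biotinylated degenerate peptide sub-libraries and 50 μM ATP spiked with γ-32P-ATP. Each sub-library fixed one residue at one position around a central Ser/Thr.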

Chain of TTBK1, construct: Full length (Q5TCY1 whole entry, looked up): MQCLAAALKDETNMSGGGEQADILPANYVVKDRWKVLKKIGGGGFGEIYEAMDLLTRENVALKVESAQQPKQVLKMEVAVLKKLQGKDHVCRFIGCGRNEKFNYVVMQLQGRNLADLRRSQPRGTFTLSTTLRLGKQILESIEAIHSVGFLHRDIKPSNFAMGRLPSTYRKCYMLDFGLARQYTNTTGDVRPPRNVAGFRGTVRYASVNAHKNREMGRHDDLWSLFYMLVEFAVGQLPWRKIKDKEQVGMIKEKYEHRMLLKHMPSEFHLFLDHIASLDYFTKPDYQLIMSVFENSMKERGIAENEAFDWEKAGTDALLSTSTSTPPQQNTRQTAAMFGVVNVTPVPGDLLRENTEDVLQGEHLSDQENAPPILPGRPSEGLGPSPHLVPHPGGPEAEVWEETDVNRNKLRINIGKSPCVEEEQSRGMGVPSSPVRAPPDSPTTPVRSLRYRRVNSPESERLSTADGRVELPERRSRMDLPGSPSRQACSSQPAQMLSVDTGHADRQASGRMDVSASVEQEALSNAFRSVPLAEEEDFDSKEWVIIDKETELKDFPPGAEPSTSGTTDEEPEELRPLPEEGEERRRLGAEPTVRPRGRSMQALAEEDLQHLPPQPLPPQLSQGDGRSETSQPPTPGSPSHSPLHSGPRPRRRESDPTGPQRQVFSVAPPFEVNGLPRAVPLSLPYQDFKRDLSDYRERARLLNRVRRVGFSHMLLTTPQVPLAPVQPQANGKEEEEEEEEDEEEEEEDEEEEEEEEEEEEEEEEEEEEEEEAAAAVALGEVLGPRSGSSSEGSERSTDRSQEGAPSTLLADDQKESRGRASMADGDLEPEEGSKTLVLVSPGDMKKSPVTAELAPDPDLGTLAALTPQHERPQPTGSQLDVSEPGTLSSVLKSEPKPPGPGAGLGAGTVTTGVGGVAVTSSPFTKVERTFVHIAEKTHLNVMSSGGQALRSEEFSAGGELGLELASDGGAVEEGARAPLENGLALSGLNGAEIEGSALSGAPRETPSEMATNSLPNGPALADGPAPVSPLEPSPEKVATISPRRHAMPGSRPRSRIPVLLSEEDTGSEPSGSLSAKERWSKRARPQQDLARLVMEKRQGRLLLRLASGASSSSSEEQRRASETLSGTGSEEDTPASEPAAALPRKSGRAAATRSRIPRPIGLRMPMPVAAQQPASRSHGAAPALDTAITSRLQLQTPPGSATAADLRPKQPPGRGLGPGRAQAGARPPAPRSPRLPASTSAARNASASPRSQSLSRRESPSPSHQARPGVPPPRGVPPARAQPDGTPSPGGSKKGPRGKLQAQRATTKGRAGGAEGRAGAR
Chain of NEK11, construct: Full length (Q8NG66 whole entry, looked up): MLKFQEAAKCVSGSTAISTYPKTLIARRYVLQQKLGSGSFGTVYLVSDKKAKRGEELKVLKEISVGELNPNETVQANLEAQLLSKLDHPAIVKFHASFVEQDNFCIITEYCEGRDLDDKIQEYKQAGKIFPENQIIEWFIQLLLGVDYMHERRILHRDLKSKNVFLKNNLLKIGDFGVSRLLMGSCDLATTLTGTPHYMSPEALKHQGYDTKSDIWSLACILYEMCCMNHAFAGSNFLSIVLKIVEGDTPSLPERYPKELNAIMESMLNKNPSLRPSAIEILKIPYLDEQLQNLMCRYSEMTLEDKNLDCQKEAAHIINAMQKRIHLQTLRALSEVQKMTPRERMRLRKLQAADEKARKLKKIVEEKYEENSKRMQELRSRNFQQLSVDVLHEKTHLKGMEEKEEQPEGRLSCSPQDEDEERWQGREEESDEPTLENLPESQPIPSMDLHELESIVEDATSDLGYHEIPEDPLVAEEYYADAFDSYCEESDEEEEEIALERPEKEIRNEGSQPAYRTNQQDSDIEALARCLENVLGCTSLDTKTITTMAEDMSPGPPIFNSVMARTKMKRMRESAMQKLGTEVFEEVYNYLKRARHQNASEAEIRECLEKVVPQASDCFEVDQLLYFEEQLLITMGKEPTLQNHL
Chain of CIT, construct: aa1-449 (O14578 1-449, looked up): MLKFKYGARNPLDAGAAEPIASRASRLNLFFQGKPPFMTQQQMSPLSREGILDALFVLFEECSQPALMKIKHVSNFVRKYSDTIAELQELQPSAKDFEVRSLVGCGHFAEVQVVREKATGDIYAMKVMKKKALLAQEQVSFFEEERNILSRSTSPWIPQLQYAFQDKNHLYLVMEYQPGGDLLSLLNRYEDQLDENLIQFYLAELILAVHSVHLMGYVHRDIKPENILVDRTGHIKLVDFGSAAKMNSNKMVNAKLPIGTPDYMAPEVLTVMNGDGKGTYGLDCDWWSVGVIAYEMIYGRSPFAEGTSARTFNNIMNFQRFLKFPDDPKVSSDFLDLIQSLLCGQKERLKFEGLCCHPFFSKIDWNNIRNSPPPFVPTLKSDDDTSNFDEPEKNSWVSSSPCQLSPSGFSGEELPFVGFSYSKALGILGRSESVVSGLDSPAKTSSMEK
Chain of SLK, construct: Full length (Q9H2G2 whole entry, looked up): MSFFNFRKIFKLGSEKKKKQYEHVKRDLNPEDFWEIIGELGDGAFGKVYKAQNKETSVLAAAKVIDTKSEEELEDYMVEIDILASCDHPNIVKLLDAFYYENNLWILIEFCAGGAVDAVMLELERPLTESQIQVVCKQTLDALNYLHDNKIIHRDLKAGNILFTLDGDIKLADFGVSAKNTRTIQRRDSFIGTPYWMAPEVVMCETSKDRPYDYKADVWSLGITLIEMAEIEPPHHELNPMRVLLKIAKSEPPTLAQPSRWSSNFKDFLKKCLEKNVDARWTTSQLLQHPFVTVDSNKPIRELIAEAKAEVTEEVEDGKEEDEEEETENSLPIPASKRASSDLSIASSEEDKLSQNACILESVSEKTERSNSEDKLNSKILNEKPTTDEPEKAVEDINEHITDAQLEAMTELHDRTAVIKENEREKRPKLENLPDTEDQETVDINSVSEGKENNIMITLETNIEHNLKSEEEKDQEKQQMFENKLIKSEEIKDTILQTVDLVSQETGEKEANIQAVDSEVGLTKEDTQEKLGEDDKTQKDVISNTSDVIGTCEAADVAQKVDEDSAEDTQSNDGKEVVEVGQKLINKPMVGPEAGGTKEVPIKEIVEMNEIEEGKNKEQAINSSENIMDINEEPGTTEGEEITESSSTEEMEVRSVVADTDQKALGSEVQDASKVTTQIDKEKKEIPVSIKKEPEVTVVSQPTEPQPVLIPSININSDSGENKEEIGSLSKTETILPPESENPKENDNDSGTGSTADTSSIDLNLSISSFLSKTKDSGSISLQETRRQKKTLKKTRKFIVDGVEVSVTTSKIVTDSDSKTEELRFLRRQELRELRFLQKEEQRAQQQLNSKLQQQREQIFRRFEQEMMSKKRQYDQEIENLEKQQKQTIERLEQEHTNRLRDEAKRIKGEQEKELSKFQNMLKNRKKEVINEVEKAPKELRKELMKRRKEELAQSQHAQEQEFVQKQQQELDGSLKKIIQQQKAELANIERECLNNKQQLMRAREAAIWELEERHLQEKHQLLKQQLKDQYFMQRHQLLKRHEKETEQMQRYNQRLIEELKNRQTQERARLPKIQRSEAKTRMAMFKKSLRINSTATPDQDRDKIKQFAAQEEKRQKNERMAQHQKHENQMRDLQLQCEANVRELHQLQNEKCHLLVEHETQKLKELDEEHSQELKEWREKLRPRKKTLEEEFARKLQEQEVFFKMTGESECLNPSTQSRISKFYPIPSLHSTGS

TTBK1, construct: Full length (from UniProt Q5TCY1)
relative phosphorylation
Conditions	at +1	at +2	at +3	at +4	at -1	at -2	at -3	at -4	at -5
A fixed	0.474	1.63	0.964	0.817	0.663	0.79	0.94	0.821	0.856
D fixed	0.168	0.192	0.85	0.83	0.452	1.46	1.23	1.03	0.844
E fixed	0.626	0.168	1.35	0.735	0.391	1.14	0.832	0.75	0.582
F fixed	2.09	1.42	1.49	1.32	1.99	1.06	1.43	1.33	1.78
G fixed	0.183	0.441	0.998	0.874	0.355	0.662	0.918	0.815	0.877
H fixed	0.657	1.1	0.867	0.931	0.834	0.749	0.903	0.951	0.747
I fixed	2.66	1.23	1.54	0.714	1.67	1.02	1.56	1.24	1.19
K fixed	0.517	1.04	0.514	1.1	1.28	0.64	0.66	0.957	1.08
L fixed	1.76	0.965	1.15	0.965	1.7	2.09	1.24	1.07	0.95
M fixed	1.5	1.31	1.29	0.855	1.08	1.23	1.04	0.933	0.79
N fixed	0.221	0.394	0.472	0.8	0.562	0.773	0.666	0.683	0.626
P fixed	0.0712	0.231	0.421	1.23	0.589	1.04	0.649	0.687	0.7
Q fixed	0.749	0.493	0.595	0.928	0.675	0.849	0.801	0.674	0.773
R fixed	0.789	1.42	0.641	1.41	1.23	0.934	0.888	1.06	1.22
V fixed	1.84	1.18	1.35	0.728	1.4	1.04	1.02	1.22	1.17
W fixed	1.38	2.24	1.19	1.75	1.11	0.808	1.16	1.54	1.35
Y fixed	1.31	1.57	1.32	1.01	1.03	0.721	1.08	1.23	1.47
pThr fixed	0.403	0.521	0.836	1.01	0.51	2.02	1.57	1.28	1.03
pTyr fixed	1.48	12.4	1.22	0.697	0.613	2.31	2.58	1.76	1.35

CIT, construct: aa1-449 (from UniProt O14578)
relative phosphorylation
Conditions	at +1	at +2	at +3	at +4	at -1	at -2	at -3	at -4	at -5
A fixed	0.788	1.01	0.8	0.784	0.721	0.715	0.553	1	0.448
D fixed	0.453	0.586	0.789	0.886	0.385	0.254	0.176	0.422	0.299
E fixed	0.373	0.517	0.638	0.851	0.372	0.28	0.171	0.504	0.276
F fixed	1.34	1	1.37	0.882	0.778	0.406	0.259	0.622	0.767
G fixed	0.937	2.04	1.1	1.13	0.905	0.435	0.382	0.931	0.498
H fixed	1.24	1.3	1.67	1.15	1.75	0.874	0.797	0.997	0.804
I fixed	0.914	0.884	0.866	0.948	0.394	0.693	0.251	0.612	1.09
K fixed	0.779	0.694	0.781	0.858	2.2	3.1	1.76	2.77	1.75
L fixed	1.02	0.768	0.995	1.01	0.874	0.826	0.25	0.74	0.89
M fixed	1.14	0.77	0.889	1.03	0.888	0.88	0.303	0.801	0.603
N fixed	1.41	1.06	0.882	1.14	1.17	0.779	0.4	0.735	0.465
P fixed	0.461	1.36	1.23	1.43	1.39	0.42	0.739	0.978	0.631
Q fixed	1.15	0.762	0.931	1.04	0.969	1.03	0.7	0.924	0.72
R fixed	1.05	0.907	0.763	0.874	1.85	4.68	9.39	3.11	5.94
V fixed	0.734	0.86	0.816	0.805	0.506	0.838	0.299	0.683	0.523
W fixed	1.55	1.16	1.31	1.21	0.682	0.407	0.302	0.571	0.591
Y fixed	1.66	1.33	1.17	0.979	1.17	0.389	0.272	0.598	0.707
pThr fixed	0.466	0.609	0.878	1.12	0.349	0.323	0.259	0.491	0.405
pTyr fixed	0.784	0.65	0.802	0.925	0.34	0.333	0.226	0.395	0.554

SLK, construct: Full length (from UniProt Q9H2G2)
relative phosphorylation
Conditions	at +1	at +2	at +3	at +4	at -1	at -2	at -3	at -4	at -5
A fixed	0.368	0.647	0.652	0.778	0.576	0.458	0.681	1.05	1.07
D fixed	0.242	0.669	0.58	1.14	0.484	0.531	0.8	1.09	1.57
E fixed	0.198	0.358	0.515	0.774	0.33	0.306	0.686	1.08	1
F fixed	1.23	0.482	0.699	0.768	0.781	2.5	0.948	0.894	0.915
G fixed	0.428	0.917	1.01	1.04	0.478	0.424	0.641	1.2	1.06
H fixed	0.835	1.38	1.13	1.15	1.16	0.848	1.14	1.04	1.2
I fixed	1.39	0.349	0.454	0.648	0.287	0.263	0.314	0.6	0.552
K fixed	1.24	2.1	2.23	1.47	3.28	1.41	2.4	1.06	1.48
L fixed	2.29	0.478	0.632	0.8	0.881	0.357	0.386	0.706	0.617
M fixed	2.25	0.614	0.61	0.801	0.904	0.568	0.565	0.747	0.691
N fixed	0.877	1.22	1.27	1.04	1.59	0.737	1.11	0.85	1.21
P fixed	0.399	1.22	1.89	1.47	0.756	0.613	1	1.68	0.872
Q fixed	0.818	1.04	0.918	1.22	1.27	0.604	1.01	0.918	0.744
R fixed	1.11	3.74	2.14	1.45	1.68	1.13	1.79	1.11	1.31
V fixed	0.673	0.445	0.514	0.598	0.35	0.306	0.326	0.688	0.716
W fixed	1.49	0.745	0.911	1.04	0.781	0.862	1.95	1.36	1.12
Y fixed	1.16	0.599	0.844	0.81	1.41	5.07	1.26	0.95	0.872
pThr fixed	0.61	1	0.916	0.839	0.431	0.525	0.878	1.28	1.27
pTyr fixed	0.455	0.581	0.811	0.641	0.392	0.921	1.16	1.07	1.03

NEK11, construct: Full length (from UniProt Q8NG66)
relative phosphorylation
Conditions	at +1	at +2	at +3	at +4	at -1	at -2	at -3	at -4	at -5
A fixed	0.432	0.613	0.845	0.834	0.977	1.38	1.06	0.887	1.02
D fixed	0.25	0.395	0.499	0.597	0.64	0.742	0.568	0.73	0.677
E fixed	0.234	0.349	0.53	0.606	0.59	0.579	0.643	0.659	0.709
F fixed	2.35	0.978	1.48	0.997	0.918	1.49	1.22	1.33	1.18
G fixed	0.494	0.664	0.797	0.876	1.57	1.28	1.01	1.2	1.36
H fixed	0.625	1.42	0.962	1.28	1.1	0.909	0.976	0.929	1.11
I fixed	2	0.549	0.797	0.497	0.491	0.542	0.671	0.724	0.866
K fixed	0.563	1.85	1.3	1.96	1.67	0.867	1.12	1.06	0.901
L fixed	1.86	0.787	1.25	0.805	0.914	0.975	1.12	0.945	0.763
M fixed	2.27	1.06	1.2	0.824	1.42	1.06	1.4	1.07	1.13
N fixed	0.573	1.06	1.05	1.11	1.23	1.42	1.18	1.08	1.03
P fixed	0.479	0.795	0.931	1	0.558	1.05	0.971	1.08	0.927
Q fixed	0.605	0.78	0.885	1.27	0.942	0.944	0.983	1.06	0.893
R fixed	0.494	1.93	0.864	1.02	1.53	0.991	1.2	1.12	1.23
V fixed	0.926	0.566	0.965	0.695	0.605	0.601	0.696	0.778	0.863
W fixed	1.23	1.02	1.43	1.42	0.764	1.1	0.979	1.31	1.21
Y fixed	1.62	2.17	1.21	1.21	1.08	1.06	1.21	1.03	1.13
pThr fixed	0.998	1.15	1.06	0.672	0.94	1.38	1.37	1.47	1.17
pTyr fixed	0.509	0.51	0.848	0.63	1.11	0.973	1.42	0.98	1.27
